Where a chain is given by its changes, count along the chain named. Names and notes keep the numbering of the source.
Key:
[1] = system: PPO-deficient BT3 E. coli (ΔPPO); experiment: Herbicide tolerance of PPO-deficient BT3 E. coli transformed with CyPPO10/CyPPO13 wild type or mutant genes on herbicide-containing LB agar; type: cell-based; design: key: the level of herbicide tolerance of the wild type was represented by “−”; if higher, adding “+” to the max “+++++”; if higher, adding “+” to the max “+++++”; if higher, adding “+” to the max “+++++”; if higher, adding “+” to the max “+++++”; if higher, adding “+” to the max “+++++”
Text: In order to enhance PPO-inhibiting herbicide tolerance of CyPPO10 and CyPPO13, the amino acids interacting with herbicide, as identified in the Example 3, were mutated. After PPO-deficient BT3 E. coli (ΔPPO) was transformed with a PPO gene having such mutation, and then cultured with PPO-inhibiting herbicide, to observe the growth of transformed E. coli, as follows:
The pET303-CyPPO10 or pET303-CyPPO13 plasmids prepared in the Example 4, and plasmids containing each mutant gene, were transformed into BT3 competent cell by a heat shock method, and cultured in a LB agar medium containing ampicillin (100 μg/ml).
For seed culture of BT3 transformants, a single colony thereof was cultured in 3 ml of LB broth (LPSS) containing ampicillin for 12 hours or more, and 50˜100 μl of the cultured solution was further cultured until absorbance (OD600) reaches 0.5 to 1. Then, the obtained cultured solution was diluted with LB broth to adjust absorbance (OD600) to 0.5, and was diluted again 5 times by a factor of one tenth with LB broth.
LB (25 g/L), Bacto agar (12 g/L), ampicillin (100 μg/ml) and various herbicides (0˜200 μM) were mixed, to prepare herbicide-containing media.
Ten microliters of the diluted solution were dropped on the herbicide-containing media, and the media were incubated with light for 16-20 hours at 37° C. The growth level and PPO-inhibiting herbicide tolerance of BT3 transformed with each gene were evaluated.
The herbicide tolerance was evaluated relatively compared to CyPPO wild type, and shown in following Tables 8 to 11 and FIGS. 11 to 29:
In the Tables 8 to 11, the level of herbicide tolerance of the wild type was represented by “−”, and the level of herbicide tolerance was graduated by representing the equal level of tolerance by “−”, and if higher, adding “+” to the max “+++++”.
FIGS. 11 to 19 (wild type and variants of CyPPO10) and FIGS. 20 to 29 (wild type and variants of CyPPO13) show the results of culturing E. coli transformed with CyPPO genes (wild type and variant type), and the concentration described on the top is concentration of herbicide treated. Six columns of each concentration were sequentially diluted 5 times by a factor of one tenth with the E. coli culture solution to the right, and the most left column is the result of E. coli culture solution OD600=0.5.

[2] = system: CyPPO10; experiment: PPO enzyme activity and IC50 by herbicides, CyPPO10 wild type and variants (MBP-PPO fusion); type: biochemical, Thermosynechococcus elongatus BP-1; settings: PPO enzyme activity of CyPPO10 protein, wild type = 100
Experimental: (§1) The enzyme activities of PPO protein and PPO protein variants were examined, and inhibition assay by PPO-inhibiting herbicides was conducted. It was confirmed that the PPO protein has low water-solubility, but in case of being expressed as a fusion protein with MBP (maltose binding protein) (MBP-PPO), the PPO protein is able to be stably expressed as water-soluble form. Therefore, the wild type and variant proteins which were expressed in the form of fusion protein with MBP were used in the present test (refer to FIG. 4).
(§2) In order to express wild type genes and mutant genes of CyPPO10 and CyPPO13 (refer to Example 1 and Example 4), those genes were introduced to pMAL-c2X vector (refer to FIG. 5) respectively, and then cloned to BL21 (DE3) E. coli (CodonPlus).
(§3) The enzyme activity of the purified wild type protein and variant proteins of CyPPO10 and CyPPO13 was measured by the following process.
(§4) At first, a substrate of PPO protein, Protoporphyrinogen IX was synthesized. This process was performed in the space where nitrogen gas is streamed. 6 mg of protoporphyrin IX was dissolved in 20% (v/v) EtOH 20 ml, and stirred under dark condition for 30 minutes. The obtained protoporphyrinogen IX solution was put into a 15 ml screw tube in an amount of 800 and flushed with nitrogen gas for 5 minutes. To this, 1 g of sodium amalgam was added and vigorous shaking was performed for 2 minutes. The lid was open to exhaust hydrogen gas in the tube. Thereafter, the lid was closed and incubated for 3 minutes. The […] was filtered using syringe and cellulose membrane filter. To 600 μl of the obtained […], 2M MOPS [3-(N-morpholino)propanesulfonic acid] was added in an amount of approximately 300 thereby adjusting pH to 8.0. To determine the enzyme activity of PPO protein, a reaction mixture was prepared with the following composition (based on 10 ml): 50 mM Tris-Cl (pH 8.0); 50 mM NaCl; 0.04% (v/v) Tween 20; 40 mM glucose (0.072 g); 5 units glucose oxidase (16.6 mg); and 10 units catalase (1 μl).
(§5) Two hundred microliters (200 μl) of reaction mixture containing a purified PPO protein were placed in 96 well plates, and preincubated for 30 min at room temperature to reduce the oxygen concentration by the reaction of glucose oxidase-catalase. The mineral oil was layered and then the reaction was initiated by adding the substrate, […], to a final concentration of 50 μM. The reaction proceeded at room temperature for 30 min and the fluorescence of protoporphyrin IX was measured using Microplate reader (Sense, Hidex) (excitation: 405 nm; emission: 633 nm). To calculate the PPO enzyme activity, protoporphyrinogen IX solution was kept open in the air to oxidize the solution (overnight). To this, 2.7N HCl was added, and the absorbance at 408 nm was measured. A standard curve was generated using standard protoporphyrin IX, and the PPO activity was measured by calibration of protoporphyrin IX using the standard curve of protoporphyrin IX.
(§6) The final concentration of each herbicide was as follows: […]

[3] = system: CyPPO13; experiment: PPO enzyme activity and IC50 by herbicides, CyPPO13 wild type and variants (MBP-PPO fusion); type: biochemical, Synechococcus sp. JA-3-3Ab; settings: PPO enzyme activity of CyPPO13 protein, wild type = 100
Experimental: as §1, §2, §3, §4, §5, §6

[4] = BT3 E. coli with CyPPO10 gene, relative to CyPPO10 wild type
[5] = BT3 E. coli with CyPPO13 gene, relative to CyPPO13 wild type

B1: CyPPO10 V305M: CyPPO10 (SEQ ID NO: 2) PPO variant (protein)
chain: MIEVDVAIVGGGLSGLSVAWRLQRSAPHYSGVLLEASDRLGGNITTQAAEGFVWELGPNSFAPTPALLQLIAEVGLHSELIRGDRHLPRYIYWRGELYPLEPTRPLALATSNLLSPWGKVRAALGALGFVPPYLGSGDESVDSFFRRHLGQEVAERLVAPFVSGVYAGDPQQLSAAAAFRRIAQLEKLGGSLIAGALRLRRQQPPQPKPPAQVQMRPGELGSFREGLAALPRAIAQQLKAPLHLQTPVEAITPEPKGGYLLRSGEQTWHARSVVLATPAYQTAELVAPFQPAIARALATIPYPTMACVVLAYPAGLGRSVRPGFGVLVPRGQGIRTLGTIWSSCLFPQRTPAGWQVFTSFIGGATDPDLASLREEAIVEQVQQDLTRLLDLPAAKARLLGMKVWRRAIPQYIVGYPQQWQQVTHALTQTPGLFLCSNYAEGVALGDRVEHGNRTAAAVAAYLAGGQS
modifications: Synthetic CyPPO10
Herbicide tolerance level, Acifluorfen (up to 200 μM) [1, 4]: +++
Herbicide tolerance level, Fomesafen (up to 200 μM) [1, 4]: ++++
Herbicide tolerance level, Pentoxazone (up to 200 μM) [1, 4]: ++++
Herbicide tolerance level, Pyraclonil (up to 200 μM) [1, 4]: +++
Herbicide tolerance level, Pyraflufen-ethyl (up to 200 μM) [1, 4]: +
Herbicide tolerance level, Saflufenacil (up to 200 μM) [1, 4]: +
Herbicide tolerance level, Tiafenacil (up to 200 μM) [1, 4]: ++
Activity (%) [2]: 100%

B2: CyPPO13 P316A + V318L: CyPPO13 (SEQ ID NO: 4) PPO variant (protein)
chain: MNPATPEPLNAEVVVIGAGISGLTLAWRLQQGLSARGGSPQAVLLAEASSRVGGCISTQSKDGYRWEEGPNSFTPTPALLNLIAEVGLTDQLVLADAKLPRYIYWEGALLPVPLSPAAALGSRLLSVGGKLRALQGLLGFVPPPPGHEETVRQFFRRQLGSEVAERLVEPFTSGVYAGDPDQLSAVAAFPRVAGLEERYGSLFAGALQALRQRPQPSPAAIQPPPKRGQLGNLRQGLQQLPEALAQKLGDSLRLGWRALQLKRAGELYWVGFETPEGSRWVAARQVVLALPAYEAAALLQELNPPASQLLAEILYAPLAVVALAYPQEALPQPLRGFGHLIPRSQGLRTLGTIWASCLFPERAPQGYHSFLSFLGGATDAALARRRGIPPIPALSPEERAQIAHAELSQVLLTRRAEPVYLGERLWPRAIPQYTLGHRQRIAQVQAHLASQTPGIWVCANYLDGVALGDCVRRAEALAQQLLSQV
modifications: Synthetic CyPPO13
Herbicide tolerance level, Acifluorfen (up to 200 μM) [1, 5]: +++
Herbicide tolerance level, Fomesafen (up to 200 μM) [1, 5]: −
Herbicide tolerance level, Pyraclonil (up to 200 μM) [1, 5]: −
Herbicide tolerance level, Pyraflufen-ethyl (up to 200 μM) [1, 5]: +
Herbicide tolerance level, Sulfentrazone (up to 200 μM) [1, 5]: −

B3: CyPPO13 F171A: CyPPO13 (SEQ ID NO: 4) PPO variant (protein)
chain: B2 chain with F171A, A316P, L318V
modifications: Synthetic CyPPO13
Activity (%) [3]: 70%

B4: CyPPO13 P316L + V318L: CyPPO13 (SEQ ID NO: 4) PPO variant (protein)
chain: B2 chain with A316L
modifications: Synthetic CyPPO13
Herbicide tolerance level, Acifluorfen (up to 200 μM) [1, 5]: +++
Herbicide tolerance level, Fomesafen (up to 200 μM) [1, 5]: ++
Herbicide tolerance level, Pyraclonil (up to 200 μM) [1, 5]: −
Herbicide tolerance level, Pyraflufen-ethyl (up to 200 μM) [1, 5]: +
Herbicide tolerance level, Sulfentrazone (up to 200 μM) [1, 5]: +

B5: CyPPO13 A177L: CyPPO13 (SEQ ID NO: 4) PPO variant (protein)
chain: B2 chain with A177L, A316P, L318V
modifications: Synthetic CyPPO13
Activity (%) [3]: 97%

B6: CyPPO13 V318M: CyPPO13 (SEQ ID NO: 4) PPO variant (protein)
chain: B2 chain with A316P, L318M
modifications: Synthetic CyPPO13
Activity (%) [3]: 81%

B7: CyPPO13 I353T: CyPPO13 (SEQ ID NO: 4) PPO variant (protein)
chain: B2 chain with A316P, L318V, I353T
modifications: Synthetic CyPPO13
Activity (%) [3]: 62%

B8: CyPPO13 F337V: CyPPO13 (SEQ ID NO: 4) PPO variant (protein)
chain: B2 chain with A316P, L318V, F337V
modifications: Synthetic CyPPO13
Activity (%) [3]: 88%

B9: CyPPO13 E340T: CyPPO13 (SEQ ID NO: 4) PPO variant, printed E340T, probably L340T (protein)
chain: B2 chain with A316P, L318V, L340T
modifications: Synthetic CyPPO13
Activity (%) [3]: 83%

B10: CyPPO13 V175C: CyPPO13 (SEQ ID NO: 4) PPO variant (protein)
chain: B2 chain with V175C, A316P, L318V
modifications: Synthetic CyPPO13
Activity (%) [3]: 94%
